In patent publication US9549967B2, “Regulation of sodium channels by PLUNC proteins” (The University of North Carolina at Chapel Hill, priority 2009, dated 2017):

What was measured:
[1] = target: T1, ENaC (Homo sapiens, UniProt P37088+P51168+P51170); assay: Transepithelial electrical resistance of human bronchial epithelial cultures (EVOM); assay type: cell-based; settings: washed cultures; 50 ng/ml SPLUNC1 for 30 min or amiloride; effects not additive
T1 construct: endogenous in cells; host or cells: primary human bronchial epithelial cultures
T1 sequence (P37088 1-669): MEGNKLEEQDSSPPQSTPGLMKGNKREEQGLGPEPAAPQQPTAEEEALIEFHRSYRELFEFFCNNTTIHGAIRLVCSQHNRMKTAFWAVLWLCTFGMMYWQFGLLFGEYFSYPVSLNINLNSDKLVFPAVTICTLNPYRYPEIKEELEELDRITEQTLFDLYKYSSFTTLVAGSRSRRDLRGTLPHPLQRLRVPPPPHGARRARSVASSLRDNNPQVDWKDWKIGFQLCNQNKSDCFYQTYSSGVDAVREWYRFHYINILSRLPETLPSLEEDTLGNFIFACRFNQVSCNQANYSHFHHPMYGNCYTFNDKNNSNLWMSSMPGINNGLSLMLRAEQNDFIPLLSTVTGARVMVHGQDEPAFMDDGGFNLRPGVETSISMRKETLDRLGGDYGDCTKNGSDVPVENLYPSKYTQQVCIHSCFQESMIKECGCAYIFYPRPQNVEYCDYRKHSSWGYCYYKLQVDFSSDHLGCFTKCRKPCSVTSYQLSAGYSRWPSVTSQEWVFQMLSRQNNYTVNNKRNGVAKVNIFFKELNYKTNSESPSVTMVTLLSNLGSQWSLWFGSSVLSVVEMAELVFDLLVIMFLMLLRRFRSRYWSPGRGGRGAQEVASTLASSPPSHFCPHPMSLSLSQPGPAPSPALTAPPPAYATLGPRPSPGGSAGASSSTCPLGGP
T1 sequence (P51168 1-640): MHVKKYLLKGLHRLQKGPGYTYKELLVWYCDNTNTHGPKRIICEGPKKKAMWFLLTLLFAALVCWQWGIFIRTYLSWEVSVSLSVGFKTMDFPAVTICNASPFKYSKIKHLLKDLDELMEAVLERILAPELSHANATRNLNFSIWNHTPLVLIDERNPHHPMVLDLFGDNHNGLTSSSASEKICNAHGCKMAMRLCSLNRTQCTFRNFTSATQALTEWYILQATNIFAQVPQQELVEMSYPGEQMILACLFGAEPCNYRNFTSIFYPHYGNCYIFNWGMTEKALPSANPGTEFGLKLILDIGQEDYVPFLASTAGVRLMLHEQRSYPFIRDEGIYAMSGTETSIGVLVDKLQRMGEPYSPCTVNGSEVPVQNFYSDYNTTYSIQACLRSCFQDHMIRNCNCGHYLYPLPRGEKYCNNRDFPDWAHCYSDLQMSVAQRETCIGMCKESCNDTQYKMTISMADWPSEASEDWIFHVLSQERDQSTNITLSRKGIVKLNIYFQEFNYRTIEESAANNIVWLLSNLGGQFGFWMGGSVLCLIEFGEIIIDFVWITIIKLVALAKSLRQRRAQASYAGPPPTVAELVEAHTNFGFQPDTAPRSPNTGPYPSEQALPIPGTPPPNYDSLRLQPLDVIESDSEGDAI
T1 sequence (P51170 1-649): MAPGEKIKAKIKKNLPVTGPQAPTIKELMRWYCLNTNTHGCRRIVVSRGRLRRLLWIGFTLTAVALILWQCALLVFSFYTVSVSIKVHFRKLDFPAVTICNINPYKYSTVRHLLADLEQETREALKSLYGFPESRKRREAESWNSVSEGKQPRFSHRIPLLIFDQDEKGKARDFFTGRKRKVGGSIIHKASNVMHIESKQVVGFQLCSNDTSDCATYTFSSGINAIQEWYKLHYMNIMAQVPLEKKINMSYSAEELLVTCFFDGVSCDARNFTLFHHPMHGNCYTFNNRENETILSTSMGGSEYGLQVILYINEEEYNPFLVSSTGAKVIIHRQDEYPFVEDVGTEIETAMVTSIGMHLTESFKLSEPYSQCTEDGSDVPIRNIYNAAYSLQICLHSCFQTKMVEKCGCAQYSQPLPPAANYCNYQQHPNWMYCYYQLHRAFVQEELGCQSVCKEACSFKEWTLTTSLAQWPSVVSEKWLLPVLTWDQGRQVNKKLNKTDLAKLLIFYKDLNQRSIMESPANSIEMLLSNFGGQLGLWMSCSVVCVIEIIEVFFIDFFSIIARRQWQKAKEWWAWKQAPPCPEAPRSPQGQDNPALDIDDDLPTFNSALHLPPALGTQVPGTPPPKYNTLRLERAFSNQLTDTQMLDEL
Excerpt: Tissue procurement and cell culture: Cells were harvested by enzymatic digestion from human bronchial tissue as previously described under a protocol approved by the UNC School of Medicine IRB (Tarran et al., J. Gen. Physiol. 127:591 (2006)). Human excess donor lungs and excised recipient lungs were obtained at the time of lung transplantation from portions of main stem or […] bronchi and cells were harvested by enzymatic digestion. All preparations were maintained at an air-liquid interface in a modified bronchial epithelial medium and used 2-5 weeks after seeding on 12 mm T-Clear inserts (Corning Costar) coated with human placental type VI collagen (Sigma). Phosphate buffered saline (PBS) was used for washing human bronchial epithelial culture mucosal surfaces.
Microelectrode studies. A single-barreled potential difference-sensing electrode was placed in the airway surface liquid by micromanipulator and used in conjunction with a macroelectrode in the serosal solution to measure transepithelial voltage using a voltmeter (World Precision Instruments). […] Transepithelial resistance was routinely measured using the EVOM system (WPI) as previously described (Tarran et al., J. Gen. Physiol. 127:591 (2006)).

[2] = tested on: human bronchial epithelial cultures; assay: Airway surface liquid height by confocal microscopy in human bronchial epithelial cultures; assay type: cell-based; settings: SPLUNC1 knockdown cultures; 50 ng/ml rSPLUNC1 added to airway surface liquid
Excerpt: shRNA-induced knockdown of SPLUNC1: Our strategy was to select shRNA sequences from Dharmacon that targeted SPLUNC1 effectively by using transient siRNA in an immortalized human airway epithelial cell line (denoted AALEB) (Lundberg et al., Oncogene 21:4577 (2002)). […] Passage-1 airway cells surviving one week of selection were then trypsinized and plated down on 12 mm T-clear inserts and differentiated under air liquid interface conditions. At the time of the functional assays, we measured airway surface liquid SPLUNC1 protein levels by Western blot to verify stable knockdown. An anti-luciferase shRNA-expressing adenovirus was infected separately as a control.
Confocal microscopy: To label airway surface liquid, Ringer containing Texas Red-dextran (2 mg/ml; Invitrogen) was added to human bronchial epithelial culture mucosal surfaces. Perfluorocarbon was added mucosally to prevent evaporation of the airway surface liquid and the culture placed in a chamber containing 100 μl Ringer on the stage of a Leica SP5 confocal microscope with a 63× glycerol immersion objective. 5 points per culture were scanned and an average airway surface liquid height determined. For confocal microscopy human bronchial epithelial cultures were bathed serosally in a modified Ringer solution containing (mM): 116 NaCl, 10 NaHCO3, 5.1 KCl, 1.2 CaCl2, 1.2 MgCl2, 20 TES, 10 glucose, pH 7.4). […]

B1: SPLUNC1: human SPLUNC1, 256 amino acid secreted PLUNC protein (SEQ ID NO:1); rSPLUNC1 = V5/6His-tagged protein purified from HEK293 media (protein, listed as Homo sapiens)
chain: MFQTGGLIVFYGLLAQTMAQFGGLPVPLDQTLPLNVNPALPLSPTGLAGSLTNALSNGLLSGGLLGILENLPLLDILKPGGGTSGGLLGGLLGKVTSVIPGLNNIIDIKVTDPQLLELGLVQSPDGHRLYVTIPLGIKLQVNTPLVGASLLRLAVKLDITAEILAVRDKQERIHLVLGDCTHSPGSLQISLLDGLGPLPIQGLLDSLTGILNKVLPELVQGNVCPLVNEVLRGLDITLVHDIVNMLIHGLQFVIKV
modifications: V5/6His tag
notes: rSPLUNC1 = V5/6His-tagged protein purified from HEK293 media
- increase of the transepithelial electrical resistance [1]: ~33%
- regulation of airway surface liquid height [2]: restored
